How the values were obtained:
[1] = target: BadA head fragment after chymotrypsin treatment (protease-resistant fragment of approx. 14 kDa) (Bartonella henselae); assay: not stated; fragments of approx. 14 kDa after trypsin or chymotrypsin treatment (10 min, room temperature, 20 mM MOPS/KOH pH 7.2, 150 mM NaCl); how the trimers were shown is not told
[2] = target: BadA head fragment after trypsin treatment (protease-resistant fragment of approx. 14 kDa) (Bartonella henselae); assay: as above
[3] = target: the molecule itself; assay: SEC-MALS; calibrated analytical S200 column (GE Healthcare) coupled to a MiniDAWN Tristar static light scattering detector; data not shown

BadA head fragment after chymotrypsin treatment (protease-resistant fragment of approx. 14 kDa) (domain or fragment)
stoichiometry N [1]: 3

BadA head fragment after trypsin treatment (protease-resistant fragment of approx. 14 kDa) (domain or fragment)
stoichiometry N [2]: 3

B1: BadA head fragment (Trp-ring domain, GIN domain, neck and first stalk segment; residues 375 to 536) (domain or fragment)
chain: KALRGMISEKGGWNLTVNNDNNTVVSSGGALDLSSGSKNLKIVKDGKKNNVTFDVARDLTLKSIKLDGVTLNETGLFIANGPQITASGINAGSQKITGVAEGTDANDAVNFGQLKKIETEVKEQVAASGFVKQDSDTKYLTIGKDTDGDTINIANNKSDKRT
notes: Residues 385-498 are resolved in the crystal; also called BadA construct; BadA fragment; source: recombinantly expressed, purified as described [11]
stoichiometry N [3]: 3

Reference: PMC2483945, “Structure of the Head of the Bartonella Adhesin BadA” (PLoS Pathogens, 2008)
